IntAct's records for PubMed 33965375

Biological target: spike_sars2 S (UniProt P0DTC2)

| Substance | effect of a mutation on the interaction |
| --- | --- |
| Endoplasmic reticulum chaperone BiP (Homo sapiens), P11021 R197H | decreasing interaction strength |
| Endoplasmic reticulum chaperone BiP (Homo sapiens), P11021 G227D | decreasing interaction strength |
